In patent US8053186 (OHIO STATE UNIVERSITY RESEARCH FOUNDATION, dated 2011):

B1: Drosha (endogenous, immunoprecipitated from SEMK2 or PER377 nuclear extracts) (enzyme, human, UniProt Q9NRR4 1-1374, looked up)
chain: MMQGNTCHRMSFHPGRGCPRGRGGHGARPSAPSFRPQNLRLLHPQQPPVQYQYEPPSAPSTTFSNSPAPNFLPPRPDFVPFPPPMPPSAQGPLPPCPIRPPFPNHQMRHPFPVPPCFPPMPPPMPCPNNPPVPGAPPGQGTFPFMMPPPSMPHPPPPPVMPQQVNYQYPPGYSHHNFPPPSFNSFQNNPSSFLPSANNSSSPHFRHLPPYPLPKAPSERRSPERLKHYDDHRHRDHSHGRGERHRSLDRRERGRSPDRRRQDSRYRSDYDRGRTPSRHRSYERSRERERERHRHRDNRRSPSLERSYKKEYKRSGRSYGLSVVPEPAGCTPELPGEIIKNTDSWAPPLEIVNHRSPSREKKRARWEEEKDRWSDNQSSGKDKNYTSIKEKEPEETMPDKNEEEEEELLKPVWIRCTHSENYYSSDPMDQVGDSTVVGTSRLRDLYDKFEEELGSRQEKAKAARPPWEPPKTKLDEDLESSSESECESDEDSTCSSSSDSEVFDVIAEIKRKKAHPDRLHDELWYNDPGQMNDGPLCKCSAKARRTGIRHSIYPGEEAIKPCRPMTNNAGRLFHYRITVSPPTNFLTDRPTVIEYDDHEYIFEGFSMFAHAPLTNIPLCKVIRFNIDYTIHFIEEMMPENFCVKGLELFSLFLFRDILELYDWNLKGPLFEDSPPCCPRFHFMPRFVRFLPDGGKEVLSMHQILLYLLRCSKALVPEEEIANMLQWEELEWQKYAEECKGMIVTNPGTKPSSVRIDQLDREQFNPDVITFPIIVHFGIRPAQLSYAGDPQYQKLWKSYVKLRHLLANSPKVKQTDKQKLAQREEALQKIRQKNTMRREVTVELSSQGFWKTGIRSDVCQHAMMLPVLTHHIRYHQCLMHLDKLIGYTFQDRCLLQLAMTHPSHHLNFGMNPDHARNSLSNCGIRQPKYGDRKVHHMHMRKKGINTLINIMSRLGQDDPTPSRINHNERLEFLGDAVVEFLTSVHLYYLFPSLEEGGLATYRTAIVQNQHLAMLAKKLELDRFMLYAHGPDLCRESDLRHAMANCFEALIGAVYLEGSLEEAKQLFGRLLFNDPDLREVWLNYPLHPLQLQEPNTDRQLIETSPVLQKLTEFEEAIGVIFTHVRLLARAFTLRTVGFNHLTLGHNQRMEFLGDSIMQLVATEYLFIHFPDHHEGHLTLLRSSLVNNRTQAKVAEELGMQEYAITNDKTKRPVALRTKTLADLLESFIAALYIDKDLEYVHTFMNVCFFPRLKEFILNQDWNDPKSQLQQCCLTLRTEGKEPDIPLYKTLQTVGPSHARTYTVAVYFKGERIGCGKGPSIQQAEMGAAMDALEKYNFPQMAHQKRFIERKYRQELKEMRWEREHQEREPDETEDIKK
notes: Endogenous protein in nuclear extracts, not a purified recombinant construct; also called nuclear RNase III enzyme; SEMK2 Drosha

Assays:
[1] = biological target: T1, normal p300 All1 (endogenous) (human, UniProt Q03164 1-2718, limits assumed); experiment: co-immunoprecipitation with anti-Drosha Ab from nuclear extracts, Western blot
T1 construct: also called normal All1
T1 sequence (Q03164 1-2718 limits assumed): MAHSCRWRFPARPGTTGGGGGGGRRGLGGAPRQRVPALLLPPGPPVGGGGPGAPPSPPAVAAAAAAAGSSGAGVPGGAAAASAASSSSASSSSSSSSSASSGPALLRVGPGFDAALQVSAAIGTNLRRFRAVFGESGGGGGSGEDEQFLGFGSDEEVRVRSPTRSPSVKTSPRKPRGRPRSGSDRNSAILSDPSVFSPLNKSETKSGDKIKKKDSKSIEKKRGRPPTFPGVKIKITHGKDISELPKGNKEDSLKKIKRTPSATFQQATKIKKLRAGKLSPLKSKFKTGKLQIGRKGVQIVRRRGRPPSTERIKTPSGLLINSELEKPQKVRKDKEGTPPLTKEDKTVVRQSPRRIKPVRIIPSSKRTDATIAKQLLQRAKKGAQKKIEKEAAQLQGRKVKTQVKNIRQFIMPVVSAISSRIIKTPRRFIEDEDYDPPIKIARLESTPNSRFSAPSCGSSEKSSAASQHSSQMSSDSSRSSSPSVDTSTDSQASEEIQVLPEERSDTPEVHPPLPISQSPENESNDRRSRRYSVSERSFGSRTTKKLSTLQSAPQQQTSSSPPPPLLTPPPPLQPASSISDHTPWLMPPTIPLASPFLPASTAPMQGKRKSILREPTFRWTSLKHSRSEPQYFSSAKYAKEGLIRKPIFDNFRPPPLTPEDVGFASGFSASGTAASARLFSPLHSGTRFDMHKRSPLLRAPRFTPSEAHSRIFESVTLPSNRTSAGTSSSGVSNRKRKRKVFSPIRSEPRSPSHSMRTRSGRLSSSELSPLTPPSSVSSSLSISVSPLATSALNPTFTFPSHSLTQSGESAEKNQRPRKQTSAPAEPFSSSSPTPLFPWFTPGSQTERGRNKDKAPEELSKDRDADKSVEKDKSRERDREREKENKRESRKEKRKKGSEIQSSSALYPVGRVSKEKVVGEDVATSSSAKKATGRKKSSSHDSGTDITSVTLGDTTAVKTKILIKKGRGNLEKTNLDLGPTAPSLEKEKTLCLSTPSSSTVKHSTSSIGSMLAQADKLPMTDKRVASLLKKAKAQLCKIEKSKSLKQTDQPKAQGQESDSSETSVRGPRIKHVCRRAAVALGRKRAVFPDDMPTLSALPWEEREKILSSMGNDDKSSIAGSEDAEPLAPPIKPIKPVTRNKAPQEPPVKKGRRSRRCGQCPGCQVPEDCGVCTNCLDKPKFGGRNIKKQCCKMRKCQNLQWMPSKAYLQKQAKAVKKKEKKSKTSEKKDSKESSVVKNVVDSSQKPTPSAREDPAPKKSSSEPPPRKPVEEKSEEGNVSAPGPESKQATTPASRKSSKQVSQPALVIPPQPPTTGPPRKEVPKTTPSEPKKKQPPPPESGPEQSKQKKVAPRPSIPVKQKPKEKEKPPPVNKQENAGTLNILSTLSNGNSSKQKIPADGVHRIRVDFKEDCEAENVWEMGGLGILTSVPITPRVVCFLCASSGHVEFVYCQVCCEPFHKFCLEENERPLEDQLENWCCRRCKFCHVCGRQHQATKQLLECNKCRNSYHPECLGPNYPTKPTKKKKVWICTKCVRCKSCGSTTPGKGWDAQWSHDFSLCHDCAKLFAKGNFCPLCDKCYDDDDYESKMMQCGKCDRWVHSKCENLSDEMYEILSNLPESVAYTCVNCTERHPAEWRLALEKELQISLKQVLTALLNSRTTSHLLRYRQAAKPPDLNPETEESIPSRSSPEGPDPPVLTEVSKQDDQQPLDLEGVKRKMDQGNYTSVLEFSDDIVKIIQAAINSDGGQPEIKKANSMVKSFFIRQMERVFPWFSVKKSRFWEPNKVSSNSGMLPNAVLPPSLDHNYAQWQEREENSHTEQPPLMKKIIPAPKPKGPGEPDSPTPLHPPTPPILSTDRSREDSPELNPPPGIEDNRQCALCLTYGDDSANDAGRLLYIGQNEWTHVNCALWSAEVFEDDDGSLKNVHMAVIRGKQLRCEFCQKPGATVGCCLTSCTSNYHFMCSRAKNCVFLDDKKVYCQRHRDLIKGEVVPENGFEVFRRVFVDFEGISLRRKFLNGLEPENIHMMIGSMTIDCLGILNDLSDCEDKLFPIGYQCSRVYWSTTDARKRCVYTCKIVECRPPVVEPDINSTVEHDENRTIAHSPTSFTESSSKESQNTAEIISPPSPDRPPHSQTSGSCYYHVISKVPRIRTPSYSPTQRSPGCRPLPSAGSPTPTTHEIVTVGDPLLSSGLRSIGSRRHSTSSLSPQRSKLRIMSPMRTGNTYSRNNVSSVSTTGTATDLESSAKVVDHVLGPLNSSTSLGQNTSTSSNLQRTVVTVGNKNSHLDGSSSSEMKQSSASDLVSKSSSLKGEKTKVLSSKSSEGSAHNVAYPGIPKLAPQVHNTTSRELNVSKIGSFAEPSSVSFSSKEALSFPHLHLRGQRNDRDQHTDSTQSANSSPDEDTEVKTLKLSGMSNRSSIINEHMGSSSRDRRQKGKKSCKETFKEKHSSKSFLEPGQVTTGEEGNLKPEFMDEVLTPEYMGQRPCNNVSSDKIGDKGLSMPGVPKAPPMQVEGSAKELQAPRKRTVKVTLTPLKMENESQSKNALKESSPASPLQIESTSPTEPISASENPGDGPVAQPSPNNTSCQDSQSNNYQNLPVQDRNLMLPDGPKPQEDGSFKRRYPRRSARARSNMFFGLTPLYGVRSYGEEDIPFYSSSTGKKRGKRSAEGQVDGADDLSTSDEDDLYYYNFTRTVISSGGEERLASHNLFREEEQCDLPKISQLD
Protocol: (§1) FIG. 2A) Western blot detection of immunoprecipitated proteins. […] For unambiguous identification of Drosha, recombinant Drosha exogenously expressed in K562 cells transfected with pCK-Drosha-Flag plasmid was purified by IP (Drosha:FLAG). 20 μg nuclear extracts of leukemic cells or around 2.5 μg of immuno-purified Drosha were used in the analysis. Note that endogenous Drosha was purified from nuclear extracts while Drosha:FLAG was from whole cell lyzate.
(§2) K562 cells were transfected with pCK-drosha-flag by using a Nucleofector apparatus according to the manufacturer's instructions (AMAXA). 2 ×10^8 transfected cells were lysed and subjected to IP with anti-Flag M2 mAb as described in ref. 11. Briefly, 25 mg whole cell lysate were incubated with 500 μg mAb after preclearing with protein G Sepharose (GE Healthcare) at 4° C., O/N. Immunocomplex was precipitated with protein G Sepharose, washed, and the Drosha:FLAG in the precipitate was eluted by adding 3×FLAG peptide at a concentration of 0.4 mg/ml in a buffer containing 30 mM Hepes, pH7.4/100 mM KCl/5% Glycerol/0.2 mM EDTA/7.5 mM MgCl_2/2 mM DTT. Elution was repeated three times, each for 30 min at RT, and eluates were combined. For immunoprecipitation of endogenous Drosha, 50 mg of nuclear extracts from SEMK2 or PER377 cells prepared by the method of Dignam et al. (19) were subjected to IP with 300 μg of anti-Drosha Ab. […]

[2] = biological target: B1; experiment: co-IP with anti-Drosha Ab, Western blot
Protocol: as §1, §2

B1: no binding [1].

B2: DGCR8 (endogenous) (other, human, UniProt Q8WYQ5 1-773, looked up)
chain: METDESPSPLPCGPAGEAVMESRARPFQALPREQSPPPPLQTSSGAEVMDVGSGGDGQSELPAEDPFNFYGASLLSKGSFSKGRLLIDPNCSGHSPRTARHAPAVRKFSPDLKLLKDVKISVSFTESCRSKDRKVLYTGAERDVRAECGLLLSPVSGDVHACPFGGSVGDGVGIGGESADKKDEENELDQEKRVEYAVLDELEDFTDNLELDEEGAGGFTAKAIVQRDRVDEEALNFPYEDDFDNDVDALLEEGLCAPKKRRTEEKYGGDSDHPSDGETSVQPMMTKIKTVLKSRGRPPTEPLPDGWIMTFHNSGVPVYLHRESRVVTWSRPYFLGTGSIRKHDPPLSSIPCLHYKKMKDNEEREQSSDLTPSGDVSPVKPLSRSAELEFPLDEPDSMGADPGPPDEKDPLGAEAAPGALGQVKAKVEVCKDESVDLEEFRSYLEKRFDFEQVTVKKFRTWAERRQFNREMKRKQAESERPILPANQKLITLSVQDAPTKKEFVINPNGKSEVCILHEYMQRVLKVRPVYNFFECENPSEPFGASVTIDGVTYGSGTASSKKLAKNKAARATLEILIPDFVKQTSEEKPKDSEELEYFNHISIEDSRVYELTSKAGLLSPYQILHECLKRNHGMGDTSIKFEVVPGKNQKSEYVMACGKHTVRGWCKNKRVGKQLASQKILQLLHPHVKNWGSLLRMYGRESSKMVKQETSDKSVIELQQYAKKNKPNLHILSKLQEEMKRLAEEREETRKKPKMSIVASAQPGGEPLCTVDV
B2: binds [2].
